First the molecules themselves.
B1: ELF3 (parent)
chain: LSKEYWDCLEGKKSKHAPRGTHLW
B2: BTBD10 (parent)
chain: FVYENAKEGARNIRTSERVTLIVD
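Further: lentivirally expressed fusions sorted by FACS into six bins by GFP to DsRed ratio, PSI derived from sequencing read proportions per bin multiplied by bin number.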

One series covers variants of B1. Nature of the series: protein stability index of a GFP-peptide fusion (GPS, HEK-293T) (PSI 1-6); higher = more stable. To be noted: c terminus: a fixed tail appended.
In the case of LSKEYWDCLEGNKSKHAPRGTHLW [K12N], the protein stability index was 3.68.

LSKEYWDCLEGFKSKHAPRGTHLW [K12F]: the protein stability index came out at 2.71.

With LSKEYWDCLEGEKSKHAPRGTHLW [K12E], the protein stability index worked out at 3.21.

Take LSKEYWDCLEGWKSKHAPRGTHLW [K12W]: the protein stability index amounted to 1.54.

For the variant LSKEYWDCLEGKKSKHAPRGTHLP [W24P], the protein stability index was 4.15.

For the variant LSKEYWDCLEGKKSKHAPRGTHLC [W24C], the protein stability index stood at 3.8.

Turning to LFKEYWDCLEGKKSKHAPRGTHLW [S2F], the protein stability index turned out to be 2.26.

With LVKEYWDCLEGKKSKHAPRGTHLW [S2V], the protein stability index was 2.36.

For the variant LAKEYWDCLEGKKSKHAPRGTHLW [S2A], the protein stability index worked out at 2.59.

As to LLKEYWDCLEGKKSKHAPRGTHLW [S2L], the protein stability index was found to be 1.91.

LSKEYPDCLEGKKSKHAPRGTHLW [W6P]: the protein stability index turned out to be 3.82.

Take LSKEYGDCLEGKKSKHAPRGTHLW [W6G]: the protein stability index was 2.84.

For the variant PSKEYWDCLEGKKSKHAPRGTHLW [L1P], the protein stability index was found to be 1.86.

As to LSKEYWDCLEGKKSKHAPIGTHLW [R19I], the protein stability index is 2.38.

As for LSKEYWDCLEGKKSKHAPQGTHLW [R19Q], the protein stability index came to 3.79.

With LSKEYWDCLEGKKSKHAPAGTHLW [R19A], the protein stability index worked out at 3.06.

Take LSKEYWDCLEGKKSKHAPTGTHLW [R19T]: the protein stability index worked out at 2.85.

With LSKEYWDCLEGKKSKHAPHGTHLW [R19H], the protein stability index was 2.66.

Consider LSKEYWDCLEGKKSKHAVRGTHLW [P18V], for which the protein stability index is 2.79.

On to LSKEYWDCLEGKKSKHAPRFTHLW [G20F], for which the protein stability index stood at 1.75.

Consider LSKEYWDCLEGKKSKHAPRVTHLW [G20V], for which the protein stability index is 2.11.

As for LSKEYWDCLEGKKSKHAPRATHLW [G20A], the protein stability index was found to be 2.45.

For LSKEYWDCLEGKKSKHAPRYTHLW [G20Y], the protein stability index was 2.78.

For LSYEYWDCLEGKKSKHAPRGTHLW [K3Y], the protein stability index was 2.6.

For LSFEYWDCLEGKKSKHAPRGTHLW [K3F], the protein stability index was 2.1.

Regarding LSLEYWDCLEGKKSKHAPRGTHLW [K3L], the protein stability index stood at 2.57.

LSKEYWDCLEGKKSKKAPRGTHLW [H16K]: the protein stability index came out at 3.05.

Regarding LSKEYWDCLEGKKSKFAPRGTHLW [H16F], the protein stability index amounted to 2.64.

Consider LSKEYWDCLEGKKSKCAPRGTHLW [H16C], for which the protein stability index is 2.64.

As to LSKEYWDCLEGKKSKTAPRGTHLW [H16T], the protein stability index was determined as 3.43.

LSKEYWDCLEGKKSKMAPRGTHLW [H16M]: the protein stability index amounted to 2.3.

Take LSKEYWDCLEGKKSKWAPRGTHLW [H16W]: the protein stability index was found to be 2.24.

In the case of LSKEYWDCLEGKKDKHAPRGTHLW [S14D], the protein stability index is 4.18.

Take LSKEYWDCLEGKKAKHAPRGTHLW [S14A]: the protein stability index is 2.81.

For LSKEYWDCLEGKKLKHAPRGTHLW [S14L], the protein stability index was determined as 2.19.

Consider LSKEQWDCLEGKKSKHAPRGTHLW [Y5Q], for which the protein stability index is 2.45.

With LSKESWDCLEGKKSKHAPRGTHLW [Y5S], the protein stability index came to 3.3.

On to LSKEGWDCLEGKKSKHAPRGTHLW [Y5G], for which the protein stability index turned out to be 2.92.

Take LSKEYWDCHEGKKSKHAPRGTHLW [L9H]: the protein stability index came to 3.26.

Regarding LSKEYWDCPEGKKSKHAPRGTHLW [L9P], the protein stability index is 3.44.

With LSKEYWDCIEGKKSKHAPRGTHLW [L9I], the protein stability index worked out at 3.04.

On to LSKEYWDCLIGKKSKHAPRGTHLW [E10I], for which the protein stability index came to 1.61.

For the variant LSKEYWDCLHGKKSKHAPRGTHLW [E10H], the protein stability index is 2.15.

Consider LSKEYWDCLWGKKSKHAPRGTHLW [E10W], for which the protein stability index is 2.08.

As to LSKEYWDCLEGKMSKHAPRGTHLW [K13M], the protein stability index stood at 2.3.

As to LSKEYWDCLEGKPSKHAPRGTHLW [K13P], the protein stability index is 2.47.

Take LSKEYWDCLEGKVSKHAPRGTHLW [K13V]: the protein stability index came out at 2.32.

In the case of LSKEYWDCLEGKKSKHAPRGTILW [H22I], the protein stability index was 2.42.

With LSKEYWDCLEGKKSKHAPRGTFLW [H22F], the protein stability index is 1.92.

With LSKEYWDCLEGKKSKHAPRGTNLW [H22N], the protein stability index turned out to be 3.23.

Regarding LSKEYWDCLEGKKSKHAPRGTCLW [H22C], the protein stability index amounted to 2.45.

For LSKEYWGCLEGKKSKHAPRGTHLW [D7G], the protein stability index was 2.15.

Regarding LSKEYWCCLEGKKSKHAPRGTHLW [D7C], the protein stability index turned out to be 2.32.

For the variant LSKEYWVCLEGKKSKHAPRGTHLW [D7V], the protein stability index turned out to be 2.44.

On to LSKEYWPCLEGKKSKHAPRGTHLW [D7P], for which the protein stability index was 2.04.

In the case of LSKEYWDCLESKKSKHAPRGTHLW [G11S], the protein stability index was determined as 3.5.

Consider LSKEYWDCLEVKKSKHAPRGTHLW [G11V], for which the protein stability index is 2.2.

In the case of LSKEYWDHLEGKKSKHAPRGTHLW [C8H], the protein stability index turned out to be 3.06.

Consider LSKEYWDTLEGKKSKHAPRGTHLW [C8T], for which the protein stability index worked out at 3.26.

Consider LSKEYWDVLEGKKSKHAPRGTHLW [C8V], for which the protein stability index worked out at 3.89.

As to LSKEYWDCLEGKKSKHMPRGTHLW [A17M], the protein stability index came out at 3.06.

LSKEYWDCLEGKKSKHYPRGTHLW [A17Y]: the protein stability index stood at 2.65.

Regarding LSKEYWDCLEGKKSKHLPRGTHLW [A17L], the protein stability index is 2.45.

LSKEYWDCLEGKKSGHAPRGTHLW [K15G]: the protein stability index turned out to be 2.56.

As to LSKEYWDCLEGKKSNHAPRGTHLW [K15N], the protein stability index was found to be 2.79.

On to LSKEYWDCLEGKKSRHAPRGTHLW [K15R], for which the protein stability index was 3.44.

Regarding LSKEYWDCLEGKKSSHAPRGTHLW [K15S], the protein stability index stood at 3.04.

Take LSKEYWDCLEGKKSCHAPRGTHLW [K15C]: the protein stability index turned out to be 2.29.

Consider LSKEYWDCLEGKKSYHAPRGTHLW [K15Y], for which the protein stability index was 1.83.

Turning to LSKEYWDCLEGKKSKHAPRGFHLW [T21F], the protein stability index came out at 2.05.

As to LSKEYWDCLEGKKSKHAPRGMHLW [T21M], the protein stability index was determined as 2.32.

Turning to LSKEYWDCLEGKKSKHAPRGQHLW [T21Q], the protein stability index is 2.78.

As for LSKEYWDCLEGKKSKHAPRGTHRW [L23R], the protein stability index was determined as 3.25.

Consider LSKEYWDCLEGKKSKHAPRGTHSW [L23S], for which the protein stability index turned out to be 3.41.

With LSKEYWDCLEGKKSKHAPRGTHGW [L23G], the protein stability index was 3.42.

As for LSKEYWDCLEGKKSKHAPRGTHMW [L23M], the protein stability index came to 3.27.

As for LSKEYWDCLEGKKSKHAPRGTHTW [L23T], the protein stability index amounted to 3.29.

Variants of B2 are the subject of the next series. Described as above. The settings on record: c terminus: a fixed tail appended.
On to FVYENAKEGARNIRTSERVTLIVE [D24E], for which the protein stability index turned out to be 1.65.

On to FVYENAKEGARNIRTSERVTLIVG [D24G], for which the protein stability index stood at 1.82.

As for FVYENAKEGARNIRTSERVTLIVN [D24N], the protein stability index was 1.95.

As to FVYENAKEGARNIRTSERVTLIVQ [D24Q], the protein stability index was 2.03.

As to FVYENAKEGARNIRTSERVTLIVT [D24T], the protein stability index was 2.5.

As for FVYENAKEGARNIRTSERVTLIVP [D24P], the protein stability index is 2.06.

Turning to FVYENAKEGARNIRTSERVTLIVH [D24H], the protein stability index came to 1.66.

As for FVYENAKEGARNIRTSERVTLIVF [D24F], the protein stability index came to 2.88.

Consider FVYENAKEGARNIRTSERVTLIVY [D24Y], for which the protein stability index was found to be 2.01.

Regarding FVYENAKEGARNIRTSERVTLIVM [D24M], the protein stability index amounted to 1.95.

In the case of FVYENAKEGARNIRTSERVTLIVR [D24R], the protein stability index is 1.93.

In the case of FVYENAKEGARNIRTSERVTLIVW [D24W], the protein stability index came out at 3.12.

For FVYENAKEGARNIRTSERVTLIVL [D24L], the protein stability index stood at 2.03.

On to FVYENAKEGARNIRTSERVTLIVV [D24V], for which the protein stability index turned out to be 2.35.

Consider FVYENAKEGARNIRTSERVTLIVI [D24I], for which the protein stability index was determined as 2.95.

For the variant FVYENAKEGARNIRTSERVTLIVK [D24K], the protein stability index was determined as 1.72.

Turning to FVYENAKEGARNIRTSERVTLIVS [D24S], the protein stability index was determined as 1.18.

Source of the values: the supplement of paper PMC10567573.
